Experimental data: paper doi:10.1101/2024.04.19.590217 (bioRxiv, 2024)

Target: the molecule itself
Assay: cryo-EM structure

B1: Simian Virus 40 (SV40) Large Tumour Antigen (LTag) (enzyme)
chain: MDKVLNREESLQLMDLLGLERSAWGNIPLMRKAYLKKCKEFHPDKGGDEEKMKKMNTLYKKMEDGVKYAHQPDFGGFWDATEIPTYGTDEWEQWWNAFNEENLFCSEEMPSSDDEATADSQHSTPPKKKRKVEDPKDFPSELLSFLSHAVFSNRTLACFAIYTTKEKAALLYKKIMEKYSVTFISRHNSYNHNILFFLTPHRHRVSAINNYAQKLCTFSFLICKGVNKEYLMYSALTRDPFSVIEESLPGGLKEHDFNPEEAEETKQVSWKLVTEYAMETKCDDVLLLLGMYLEFQYSFEMCLKCIKKEQPSHYKYHEKHYANAAIFADSKNQKTICQQAVDTVLAKKRVDSLQLTREQMLTNRFNDLLDRMDIMFGSTGSADIEEWMAGVAWLHCLLPKMDSVVYDFLKCMVYNIPKKRYWLFKGPIDSGKTTLAAALLELCGGKALNVNLPLDRLNFELGVAIDQFLVVFEDVKGTGGESRDLPSGQGINNLDNLRDYLDGSVKVNLEKKHLNKRTQIFPPGIVTMNEYSVPKTLQARFVKQIDFRPKDYLKHCLERSEFLLEKRIIQSGIALLLMLIWYRPVAEFAQSIQSRIVEWKERLDKEFSLSVYQKMKFNVAMGIGVLDWLRNSDDDDEDSQENADKNEDGGEKNMEDSGHETGIDSQSQGSFQAPQSSQSVHDHNQPYHICRGFTCFKKPPTPPPEPET
Q: For B1, which “stoichiometry N” value is on record?
A: 6
